Reference: PMC3897701, “Human and Mouse CD137 Have Predominantly Different Binding CRDs to Their Respective Ligands” (PLoS ONE, 2014)

Biological target: T1, hCD137L-mFc (human CD137L extracellular domain and mouse IgG-Fc fusion protein) (human, UniProt P41273 50-254)
T1 construct: human CD137 ligand (4-1BBL), extracellular domain; a silent g to c change at base 405 destroys an AgeI site without any amino acid changed; also called hL; hL-mFc; source: COS-7, transfected, purified (rProtein A Sepharose)
Test: ELISA; purified hCD137L-mFc coated at 1 µg/ml; expression supernatants of human or mouse CD137-hFc fragments added; goat anti-human IgG-HRP; positive if P/N>2.1
Conditions: one partner purified

T1 sequence (P41273 50-254): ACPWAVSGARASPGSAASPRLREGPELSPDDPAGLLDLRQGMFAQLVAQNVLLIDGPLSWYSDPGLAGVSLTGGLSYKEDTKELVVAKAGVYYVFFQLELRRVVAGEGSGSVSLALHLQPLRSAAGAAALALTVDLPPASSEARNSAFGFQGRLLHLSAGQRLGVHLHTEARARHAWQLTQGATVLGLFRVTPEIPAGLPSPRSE

binding relative to that of human CD137: ~30%
B1: mouse CD137 extracellular domain with hFc tail (mE-hFc) (Fc fusion, UniProt P20334 24-185, looked up)
chain: VQNSCDNCQPGTFCRKYNPVCKSCPPSTFSSIGGQPNCNICRVCAGYFRFKKFCSSTHNAECECIEGFHCLGPQCTRCEKDCRPGQELTKQGCKTCSLGTFNDQNGTGVCRPWTNCSLDGRSVLKTGTTEKDVVCGPPVVSFSPSTTISVTPEGGPGGHSLQ
notes: signal peptide in the construct; mouse CD137 (4-1BB), entire extracellular region with its own leader (1-23 aa), CRDI-IV and the hinge-like region (STP), residues 1-185; Runs as a dimer on SDS-PAGE without 2-ME; also called mE-Fc; mCD137-hFc; source: COS-7, transfected (DEAE dextran); expression supernatant, and purified (rProtein A Sepharose); not shown: Fc (human IgG1 hinge-CH2-CH3), …
